Data: patent US20040096950

B1: Clostripain (Cp; EC 3.4.22.8, from Worthington or Sigma C7403) (protein)
chain: NKNQKVTIMYYCDADNNLEGSLLNDIEEMKTGYKDSPNLNLIALVDRSPRYSSDEKVLGEDFSDTRLYKIEHNKANRLDGKNEFPEISTTSKYEANMGDPEVLKKFIDYCKSNYEADKYVLIMANHGGGAREKSNPRLNRAICWDDSNLDKNGEADCLYMGEISDHLTEKQSVDLLAFDACLMGTAEVAYQYRPGNGGFSADTLVASSPVVWGPGFKYDKIFDRIKAGGGTNNEDDLTLGGKEQNFDPATITNEQLGALFVEEQRDSTHANGRYDQHLSFYDLKKAESVKRAIDNLAVNLSNENKKSEIEKLRGSGIHTDLMHYFDEYSEGEWVEYPYFDVYDLCEKINKSENFSSKTKDLASNAMNKLNEMIVYSFGDPSNNFKEGKNGLSIFLPNGDKKYSTYYTSTKIPHWTMQSWYNSIDTVKYGLNPYGKLSWCKDGQDPEINKVGNWFELLDSWFDKTNDVTGGVNHYQW
B2: BACE enzyme (refolded recombinant BACE as used in the fluorimetric activity assay) (protein)
chain: LPRETDEEPEEPGRRGSFVEMVDNLRGKSGQGYYVEMTVGSPPQTLNILVDTGSSNFAVGAAPHPFLHRYYQRQLSSTYRDLRKGVYVPYTQGKWEGELGTDLVSIPHGPNVTVRANIAAITESDKFFINGSNWEGILGLAYAEIARPDDSLEPFFDSLVKQTHVPNLFSLQLCGAGFPLNQSEVLASVGGSMIIGGIDHSLYTGSLWYTPIRREWYYEVIIVRVEINGQDLKMDCKEYNYDKSIVDSGTTNLRLPKKVFEAAVKSIKAASSTEKFPDGFWLGEQLVCWQAGTTPWNIFPVISLYLMGEVTNQSFRITILPQQYLRPVEDVATSQDDCYKFAISQSSTGTVMGAVIMEGFYVVFDRARKRIGFAVSACHVHDEFRTAAVEGPFVTLDMEDCGYNIPQTDES

Tests used:
[1] = molecular target: BACE N->Q R56KR57K no His

Protein | Cleavage position (ESI-TOF-MS), final fragment, observed parent mass 46655 (BACE N->Q R56KR57K) | Cleavage position (ESI-TOF-MS), final fragment, observed parent mass 45783 (BACE WT R56KR57K) | Cleavage position (ESI-TOF-MS), first intermediate fragment (BACE WT R56KR57K) | Cleavage position (ESI-TOF-MS), first intermediate fragment at 30-60 minutes post activation, observed parent mass 45838.30 [1] | Cleavage position (ESI-TOF-MS), fragment formed on digestion beyond 60 minutes, observed parent mass 44228.03 [1] | activity (fluorimetric assay with the fluorescent peptide R-E(EDANS)-E-V-N-L-*D-A-E-F-K(DABCYL)-R-OH as substrate) (OM 99)
B1 | MASMTGGQQMGRGSMAGVLPAHGTQHGIRLPLRSGLGGAPLGLR↓ | MASMTGGQQMGRGSMAGVLPAHGTQHGIRLPLRSGLGGAPLGLR↓ | MASMTGGQQMGR⇓GSMAGVLPAHGT . . . | MASMTGGQQMGRGSMAGVLPAHGTQHGIRLPLRSGLGGAPLGLR ↓ | EEPEEPGK ↓ KGSFVEMV . . . | 
B2 |  |  |  |  |  | 1 mM OM 99 completely inhibits activity.
